Source: the supplement of paper PMC12042874
± gives the uncertainty stated by the source.

Test: amyloid nucleation score (Sup35N fusion, yeast selection) (log enrichment); library NNK3; higher = more nucleation; inactive = no reads after selection
Outline: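 Sup35N fusions to peptides of 20 random codons were expressed in psi-negative yeast, induced 24 hours with 100 μM copper sulfate, and grown 7 days at 30°C on medium lacking adenine and uracil. Input and output plasmid inserts were sequenced by Illumina. The nucleation score is the DiMSum log enrichment of output over input reads, centred on the mode score of non-aggregating sequences. Sequences with under 100 input reads were excluded.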

Row | Substance | amyloid nucleation score
1 | IFVLQGRKYSSTSWLITHHC | inactive
2 | ELHYPVLVDS | inactive
3 | TEYFWGNYRKLCCFWWWLGR | inactive
4 | AVPNIL | inactive
5 | YCVFGWIKAWPGGLVVNEFR | inactive
6 | FFARMTALPLLQILYGSLRA | inactive
7 | VMCLRTFGASSFFI | -0.023 ± 0.55
8 | GNMKQWSIPPHIWTGQPPLM | inactive
9 | VWFNPLCYRNYGMETLVSTK | inactive
10 | RMYLAHFCVIN | 2.9 ± 0.062
11 | TCQRRYKKFS | -0.633 ± 0.52
12 | IENNSPLSSFLGYGKCIP | inactive
13 | ANLSRSSTLLSGVWSEV | inactive
14 | LCATFMNYRVKIWSQLRY | -0.426 ± 0.66
15 | MFIMVRRRLT | inactive
16 | WCCGY | 0.774 ± 0.27
17 | VDSILAMGRGAYVID | inactive
18 | MVKGGKDHSSVGPC | inactive
19 | HVARFMLNRYLLFGEPYMLK | inactive
20 | WVCDRLGRVSLILRL | 1.06 ± 0.2
21 | HINTWRLFRVGIPYVCVSDG | inactive
22 | NARHFIRYATFCCQYASRCG | 0.928 ± 0.18
23 | ASSLHDPMRYVQTFRISWCC | 1.34 ± 0.12
24 | LLIMKGCAC | inactive

Row | Substance | amyloid nucleation score
25 | SWHDINVAFADSFIDSKETC | inactive
26 | DRNAEELWCTRLLCYESCRT | inactive
27 | YTLIIRLCFFNIGCAYRFSM | inactive
28 | RVPCNETELCMFYRSGLLLL | inactive
29 | MMAFTVFISEQDYSGIIFYE | inactive
30 | CYNDRFFIVSIYRDQ | 1.07 ± 0.1
31 | IVCMLQFEVVVLHACRFESK | inactive
32 | QLSVYIYLLIQLVISRKRNT | inactive
33 | SCSWVREWYRRLHRWGCGQW | 0.656 ± 0.28
34 | CAFLFL | inactive
35 | SCLHHFMEDSEPMNMGRVVK | inactive
36 | LGRKNGGAVNVRRPHFDWDG | inactive
37 | VFLSIMSSFEWALYLL | inactive
38 | RFRKG | inactive
39 | CLSMSLAKLGVIYL | 0.724 ± 0.21
40 | SDIHMMRCGVWLKNLMFMRK | inactive
41 | ITCCM | inactive
42 | VSDCESMAN | inactive
43 | KMVGVKK | inactive
44 | WFMREAWIWSAPFWPWIRNT | inactive
45 | SSSYFIALWYFRTTRLSGGL | inactive
46 | FPGRQIYYILVLAQAFASGF | inactive
47 | IPSWREWVYGVINWRAGSSP | inactive
48 | SAKSRFSRIVSRFYHMVICA | inactive

Row | Substance | amyloid nucleation score
49 | GYTNKLKWGHRITINAFVYR | -0.267 ± 0.68
50 | YRIESFIGY | inactive
51 | DLVVNGSFNTDTCFETVSVH | inactive
52 | LHGNLRNLI | inactive
53 | DRRLPIKPHVFVYSCNSICM | 0.921 ± 0.17
54 | TQCEVYCIYGVTHGLE | inactive
55 | HCPVSIY | inactive
56 | SSIVEPQQLTGGPASGRFGE | inactive
57 | RGKSLFLINTDM | -0.148 ± 0.7
58 | WASDNVEGDWWYWW | 0.017 ± 0.57
59 | LFRPSL | inactive
60 | VGFPESPFDSLCAMCALQWV | inactive
61 | LRWFAFSKSNIALGL | inactive
62 | THLRLIYITD | inactive
63 | NYDIILMLGWSVTFKLKVRF | -0.36 ± 1.1
64 | KLWKWNTGNSVVVLGLMSGV | inactive
65 | YVYRSRFKQDLRGFLFNFTY | inactive
66 | WQTDEDRRCKTDFISLF | inactive
67 | TVVMIFLISYNFF | 1.7 ± 0.1
68 | VVTSRCLRKKLFLDLSVCIT | inactive
69 | YNFGVMVWTSDF | 2 ± 0.073
70 | LDHIGKFLFRVTGCCITFTR | inactive
71 | SYMWPMSWQET | inactive
72 | SRVKDYCSFGLDFKCVCVFL | 2.06 ± 0.094

Row | Substance | amyloid nucleation score
73 | VTFAARLTYKSILDILCMME | inactive
74 | HAVLFSVDVSYYLVPALLFR | inactive
75 | LWLIPC | inactive
76 | RIETYCVRGILAIE | inactive
77 | GDRLFLKASG | inactive
78 | VRTFEAVLCVPIRLDWVRDR | inactive
79 | PVSLNDIYIIKCANKNYEVI | inactive
80 | SWVHVSTFWYVAFGFEKSAG | inactive
81 | SVNWWTVLCVHCPGYKNLLI | 0.465 ± 0.26
82 | NGNNLIRVFVWYYDNS | 2.99 ± 0.08
83 | NAYCPPSLCVKRLYLFRMTK | inactive
84 | IISMPLGACMKAARMSF | inactive
85 | LAPFLFCRNNF | inactive
86 | GMTDNVPLGVKVKREMCQFA | inactive
87 | QKLSCPMFLMAIIVSKITKM | inactive
88 | SRYSYVYTSESLYRASVSSV | inactive
89 | KLQNCVKTDLHA | inactive
90 | LFKYLPCARRVQGRES | inactive
91 | LVRLGMQRCRPLT | inactive
92 | HNFLIMWKSVVVLAVAISAK | 0.627 ± 0.18
93 | NVMSLSMWSSLSLWYSGLS | inactive
94 | GENWDCTCVADQCRNWTCYL | 0.282 ± 0.81
95 | GFRYLRTDNYMPCRGESVGW | inactive
96 | SIFIFYRYVFWRFMCDAVFS | inactive

Row | Substance | amyloid nucleation score
97 | SPPSQYSVDQIFHMSWLVYY | inactive
98 | IYSALYLYRTPKSVYQVTQS | -0.575 ± 1
99 | FVSFGLGTMFDLRA | inactive
100 | TYLIYGGG | inactive
101 | WFWRVNIMKTIGLSHSRHEG | inactive
102 | IPLDRMCFFSMK | inactive
103 | RAVRARFSKTTVFDWYAISG | inactive
104 | GIFLSEWWLGSVSCVRTNVP | inactive
105 | ECYVR | inactive
106 | TLSGLVWWCVVFAMAT | inactive
107 | ICDLSREYSNHGFVLMDEIR | inactive
108 | SHYFK | inactive
109 | LKDLGYELIILAFKRLFLCC | inactive
110 | LGVFSRRACYLFRICLTELI | inactive
111 | GVMMVMFARL | 1.73 ± 0.091
112 | FKSYTWMKNLTVGFRIDPSE | inactive
113 | CFDLVCTLCFLFRLARVVEW | inactive
114 | VHLSRWYVN | inactive
115 | YDADRGEWLQLITSPDPFFY | inactive
116 | NINVRTELVQRKGNILP | 0.213 ± 0.17
117 | DWFSAVR | inactive
118 | VYHTYVVLMGGHLPTSLGVT | 1.8 ± 0.078
119 | CFKRLVIIMGGLGAA | inactive
